Data from patent US20180238885A1 (INSERM INSITUT NATIONAL DE LA SANTE ET DE LA RECHERCHE …, published 2018).

Target: DNMT3A (DNA methyltransferase 3A) (Homo sapiens (Human), UniProt Q9Y6K1 1-912)
Assay: epitope mapping on a membrane of 12-mer DNMT3A peptides, 2 µg GST-ISGF3γ, fluorescence detection
Protocol: Then, 2 μg of GST-ISGF3γ protein were incubated with the membrane.

Sequence of DNMT3A (DNA methyltransferase 3A) (Q9Y6K1 whole entry): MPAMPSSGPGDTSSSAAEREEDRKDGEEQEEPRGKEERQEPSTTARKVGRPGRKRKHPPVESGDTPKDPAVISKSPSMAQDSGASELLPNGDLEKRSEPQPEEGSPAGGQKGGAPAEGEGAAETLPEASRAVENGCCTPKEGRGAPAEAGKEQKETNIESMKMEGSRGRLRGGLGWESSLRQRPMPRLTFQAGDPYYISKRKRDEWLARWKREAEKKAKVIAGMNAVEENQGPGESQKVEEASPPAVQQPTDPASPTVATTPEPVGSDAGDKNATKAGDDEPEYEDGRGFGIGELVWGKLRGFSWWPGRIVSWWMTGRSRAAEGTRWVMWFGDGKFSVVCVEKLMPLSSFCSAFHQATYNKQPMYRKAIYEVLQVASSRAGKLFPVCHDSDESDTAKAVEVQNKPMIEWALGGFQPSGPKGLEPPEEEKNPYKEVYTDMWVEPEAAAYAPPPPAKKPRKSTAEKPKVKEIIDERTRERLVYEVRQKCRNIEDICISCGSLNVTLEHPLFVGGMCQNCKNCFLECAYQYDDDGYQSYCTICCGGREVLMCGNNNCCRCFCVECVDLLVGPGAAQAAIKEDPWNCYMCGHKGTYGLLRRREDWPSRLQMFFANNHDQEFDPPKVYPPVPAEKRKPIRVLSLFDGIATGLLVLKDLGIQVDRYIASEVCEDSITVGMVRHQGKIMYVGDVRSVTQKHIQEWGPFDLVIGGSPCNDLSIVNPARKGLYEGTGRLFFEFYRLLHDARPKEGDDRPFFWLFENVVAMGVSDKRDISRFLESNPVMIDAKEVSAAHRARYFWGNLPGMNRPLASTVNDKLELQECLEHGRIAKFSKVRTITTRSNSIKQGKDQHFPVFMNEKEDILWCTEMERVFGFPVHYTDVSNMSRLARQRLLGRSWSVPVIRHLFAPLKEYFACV

B1: GST-ISGF3γ protein (other)
chain: MASGRARCTRKLRNWVVEQVESGQFPGVCWDDTAKTMFRIPWKHAGKQDFREDQDAAFFKAWAIFKGKYKEGDTGGPAVWKTRLRCALNKSSEFKEVPERGRMDVAEPYKVYQLLPPGIVSGQPGTQKVPSKRQHSSVSSERKEEEDAMQNCTLSPSVLQDSLNNEEEGASGGAVHSDIGSSSSSSSPEPQEVTDTTEAPFQGDQRSLEFLLPPEPDYSLLLTFIYNGRVVGEAQVQSLDCRLVAEPSGSESSMEQVLFPKPGPLEPTQRLLSQLERGILVASNPRGLFVQRLCPIPISWNAPQAPPGPGPHLLPSNECVELFRTAYFCRDLVRYFQGLGPPPKFQVTLNFWEESHGSSHTPQNLITVKMEQAFARYLLEQTPEQQAAILSLV
notes: Recombinant fusion used at 2 µg on the DNMT3A peptide membrane; not shown: GST (glutathione S-transferase) tag
B1: binds.
